Test results: patent publication US9725702B2, “Laccase from ganoderma lucidum capable of enhancing enzymatic degradation of lignocellulolytic biomass” (DANMARKS TEKNISKE UNIVERSITET, priority 2012, dated 2017)

Legend:
Assay type in all cases: biochemical
[1] = Michaelis constant (Km) of laccase for ABTS, Hanes-Wolf plot; conditions: substrate ABTS
[2] = Laccase-cellulase catalyzed hydrolysis of pretreated biomass, glucose release; conditions: with cellulase 1 or 2, pH 5.1, 50° C., 30 hour
Description: (§1) FIG. 13. A graphical comparison of glucose released over time during hydrolysis of STEX-SCB at pH 5.1 and 50° C. by each of commercial enzyme preparations Cellulase 1 (CC2) [A]; or Cellulase 2 [B], either alone, or in combination with a laccase enzyme; the tested laccases being respectively LacGL1 and GLlac1 (LacJooSS; Q9HG17) derived from G. lucidum; and laccases derived from Agaricus bisporus (Sigma 40452), Pleurotus ostreatus (Sigma 75117) and, Trametes versicolor (Sigma 51639).
(§2) The commercial fungal laccases were purchased as lyophilized protein samples from Sigma Aldrich. A solution of each of the above 5 laccases was prepared in a citric buffer containing 20% of glycerol (pH 5.1, 100 mM).
(§3) Two different commercially available cellulase enzyme preparations used in the comparative study were “Cellulase 1” and “Cellulase 2”, which were tested in combination with each of the laccases listed above.
(§4) The three different types of pretreated biomass used in the comparative study were sugarcane bagasse, barley straw and wheat straw. The source and pre-treatment of the sugarcane bagasse by steam explosion was as set out in Example 9. […] The composition of the dry and the pretreated biomass were determined according to the US National Renewable Energy Laboratory (NREL) procedures (Sluiter et al, 2010).
(§5) The laccase-cellulase catalyzed hydrolysis of the pretreated biomass samples to release glucose was performed as follows: Hydrolysis of 5% (w/v) samples of pretreated sugarcane bagasse, barley straw, and wheat straw biomass were assayed using an Enzyme/Substrate (E/S) ratio of 0.064% w/w for laccases and of 0.4% w/w for each commercial cellulase preparation in each hydrolysis reaction. The E/S dosage was based on the total protein concentration used, as determined using Pierce BCA (BiCinchoninic Acid) protein assay kit microplate procedure according to manufacturer's instruction (Thermo Fisher Scientific, Rockford, US). […]
(§6) Laccase and cellulase-mediated hydrolysis of the 3 biomass forms, measured as glucose release, are shown graphically in FIGS. 13, 14 and 15. […]

[3] = as above; conditions: with cellulase 1 or 2, pH 5.1, 50° C., 30 hour; remark: listed apart in the source
Description: as §1, with “15.” for “13.”, “pre-treated wheaty straw” for “STEX-SCB”
as §2, §3, §4, §5, §6

B1: LacGL1: Fungal laccase from Ganoderma lucidum CBS229.93 (SEQ ID NO: 5/9), recombinantly expressed in Pichia pastoris X-33 (protein, listed as Ganoderma lucidum)
chain: GIGPKTDLTISNADVAPDGYTRAAVVVNGVFPAPLITGNKGDRFQLNVIDQMTNHTMLKSTSIHWHGFFQKGTNWADGPAFINQCPISSGHSFLYDFQVPDQAGTFWYHSHLSTQYCDGLRGPFVVYDPKDPLKKLYDIDDDSTVITLTDWYHVAARLGPRFPLGSDSTLINGLGRSTTNVTADLAVINVTQGKRYRFRLVSLSCDPNYTFSIDDHNMTVIEADGIETQPVTVNAIQIFSAQRYSFVLTANQTIDNYWIRANPNFGNVGFTDGINSAILRYAGADPVEPTTSQQTTQNLLNEVDLHPFVPKRTPGQPTQGGVDTAINMVFNFNGSNFFINNASFVPPTVPVLLQILSGAQAAQDLLPSGSVYTLPVNKSIELTFPATANAPGAPHPFHLHGHAFAVVRSAGSTVYNYDNPVWRDVVSTGTPAAGDNVTIRFQTDNPGPWFLHCHIDFHLEAGFAVVFAEDPTDTSLANPVPKAWSDLCPTYDALSVDDQ
modifications: mat_peptide (1)..(499) Mature LacGL1 laccase (minus signal peptide)
[1]; laccase expressed in Ganoderma lucidum CBS229.93 (native)
  Km: 107 µM
[1]; recombinantly expressed in Pichia pastoris
  Km: 122 µM
[2]
  glucose release compared to GLlac1: the same
[2]; p<0.05
  glucose release compared to the other tested laccases: significantly enhanced
[3]
  glucose release compared to GLlac1: the same
[3]; p<0.05
  glucose release compared to the other tested laccases: significantly enhanced
